B1: consensus MARE (dsDNA)
DNA 1: GGAATTGCTGACTCAGCATTACT
DNA 2: AGTAATGCTGAGTCAGCAATTCC
B2: IL-4 promoter -59 to -27 wild type (dsDNA)
DNA 1: CTCATTTTCCCTTGGTTTCAGCAACTTTAACTC
DNA 2: GAGTTAAAGTTGCTGAAACCAAGGGAAAATGAG

Key:
[1] = target: T1, c-Maf (b-zip domain, aa 171-371) (UniProt P54843 P54843:171-370); assay: EMSA; 20 mM HEPES pH 7.9, 100 mM KCl, room temperature; conditions: tags: S-Tag, pET29, E. coli BL21(DE3); label: 32P
Protocol: (§1) Electrophoretic mobility shift assays (EMSA) were performed as follows. 100 ng of double-stranded oligonucleotides were end-labeled with γ-³²P-dATP (DuPont NEN Research Product, Wilmington, Del.) using T4 polynucleotide kinase (Pharmacia LKB Biotechnology, Inc., Piscataway, N.J.). The labeled ds-oligonucleotides were fractionated on 15-20% polyacrylamide gels, eluted overnight at 37° C. in 1×TE and precipitated in ethanol. Binding assays were performed at room temperature for 20 minutes using 0.5 μg of recombinant proteins or 4 μl of in vitro translated products, 500 ng poly(dI-dC), and 20,000 cpm of probe in a 15 μl volume of 20 mM HEPES (pH 7.9), 100 mM KCl, 5% glycerol, 1 mM EDTA, 5 mM DTT, 0.1% NP-40, and 0.5 mg/ml BSA. The samples were then fractionated in 4% non-denaturing polyacrylamide gel containing 0.5×TBE at room temperature. Oligonucleotides derived from the murine IL4 promoter used in EMSA were: […]

[2] = target: T2, c-Jun (Mus musculus, UniProt P05627 P05627:1-334); assay: EMSA; consensus MARE contains core TRE site; conditions: tags: full-length, pGEM4, rabbit reticulocyte lysate TnT; label: 32P
T2 sequence (P05627 whole entry, one chain of several): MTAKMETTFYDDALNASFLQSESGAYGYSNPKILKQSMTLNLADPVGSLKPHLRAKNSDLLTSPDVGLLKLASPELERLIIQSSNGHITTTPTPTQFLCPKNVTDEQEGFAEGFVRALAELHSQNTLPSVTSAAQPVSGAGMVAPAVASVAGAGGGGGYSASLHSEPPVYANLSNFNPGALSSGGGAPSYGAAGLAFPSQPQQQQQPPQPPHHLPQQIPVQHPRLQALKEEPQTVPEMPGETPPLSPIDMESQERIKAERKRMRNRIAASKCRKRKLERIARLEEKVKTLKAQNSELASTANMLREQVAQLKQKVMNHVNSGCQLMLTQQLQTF
Protocol: as §1

[3] = target: T2, c-Jun; assay: EMSA; conditions: tags: full-length, pGEM4, rabbit reticulocyte lysate TnT; label: 32P
Protocol: (§2) Electrophoretic mobility shift assays (EMSA) were performed as follows. 100 ng of double-stranded oligonucleotides were end-labeled with γ-³²P-dATP (DuPont NEN Research Product, Wilmington, Del.) using T4 polynucleotide kinase (Pharmacia LKB Biotechnology, Inc., Piscataway, N.J.). The labeled ds-oligonucleotides were fractionated on 15-20% polyacrylamide gels, eluted overnight at 37° C. in 1×TE and precipitated in ethanol. Binding assays were performed at room temperature for 20 minutes using 0.5 μg of recombinant proteins or 4 μl of in vitro translated products, 500 ng poly(dI-dC), and 20,000 cpm of probe in a 15 μl volume of 20 mM HEPES (pH 7.9), 100 mM KCl, 5% glycerol, 1 mM EDTA, 5 mM DTT, 0.1% NP-40, and 0.5 mg/ml BSA. The samples were then fractionated in 4% non-denaturing polyacrylamide gel containing 0.5×TBE at room temperature. Oligonucleotides derived from the murine IL4 promoter used in EMSA were:
(§3) NF-AT proteins interact cooperatively with AP-1 family member proteins to form higher mobility complexes on IL-2 and IL-4 promoter DNA on EMSA (Jain, J. (1993) Nature 365:353-355; Rooney, J. et al. (1995) Immunity 2:545-553). […] To determine if c-Maf interacted with NF-AT in the presence of DNA, recombinant NF-ATp and c-Maf proteins were used separately or together in EMSA with the 33 bp oligonucleotide containing both the NF-AT and adjacent MARE sites. […]

[4] = target: T1, c-Maf (b-zip domain, aa 171-371); assay: EMSA; competed by homologous unlabeled probe; additional complex formed with NF-ATp; conditions: tags: S-Tag, pET29, E. coli BL21(DE3); label: 32P
Protocol: as §2, §3

T1 sequence (P54843 171-370, one chain of several): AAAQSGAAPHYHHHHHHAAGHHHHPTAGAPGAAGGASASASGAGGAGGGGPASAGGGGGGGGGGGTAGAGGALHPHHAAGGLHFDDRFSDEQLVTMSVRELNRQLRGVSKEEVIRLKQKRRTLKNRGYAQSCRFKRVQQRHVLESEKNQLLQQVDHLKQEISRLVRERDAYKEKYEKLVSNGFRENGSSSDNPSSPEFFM

Row | Binder | binding result [1] | binding result [2] | binding result [3] | binding result [4]
1 | B1 | binds | binds |  | 
2 | B2 |  |  | no binding | binds

— US20030100114, “Methods for regulating T cell subsets by modulating transcription factor activity” (President and Fellows of Harvard College, published 2003)
